# Test results reported in patent US6368619B1, “Hydrophobic preparations of hydrophilic species and process for their preparation” (Provalis UK Limited, priority 1993, dated 2002).
# How the values were obtained:
# Type in all cases: physicochemical
# [1] = Dispersion of hydrophilic species/amphiphile array in hydrophobic solvent: visual optical clarity
# [2] = Turbidity of oil preparations by optical density / absorbance (plate reader); conditions: for OD650: Example 23: HDPoC, one hour; for optical density at 550 nm: Example 25: 0.5 mg protein/well, oleic acid
# Procedure: It is very much preferred that the preparations of the invention are optically clear and this can be monitored by measuring turbidity at visible wave lengths and, in some cases, by checking for sedimentation over a period of time. […]
# Aprotinin was dissolved in distilled water at a concentration of 10 mg/ml. Hexadecyl phosphocholine (HDPoC) was dissolved in distilled water at a concentration of 100 mg/ml. To aliquots of 100 μl of aprotinin solution, volumes of HDPOC were added ranging from 0 through to 10, 20, 30, 40 to 50 μl. The mixtures were frozen at −20° C. and lyophilised overnight. The following day 100 μl of oleic acid was added to each sample and shaken for one hour at room temperature on an orbital shaker.
# Octyl glucoside was dissolved in distilled water and dispensed into wells of a microplate to give the following amounts of amphiphile per well: −0, 0.5, 1.0, 1.5, 2.0, 2.5, 5, 7.5 and 10 mg. Aprotinin was dissolved in distilled water at a concentration of 5 mg/ml, and 100 μl was dispensed into each well above, containing 0.5 mg of protein. The plate was mixed well, frozen at −20° C. and lyophilised overnight. The following day, […] of oleic acid was added to each well. The plate was shaken at room temperature, and optical density measurements at 550 nm taken at intervals with a plate reader. A low absorbance value indicates a low level of scattering, and corresponds to effective dispersion of protein in oil.
# The results, expressed in terms of optical density as a function of octyl glucoside concentration (at constant protein concentration) at different times after addition of oleic acid are given in the table and accompanying graph.
# [3] = Percent sedimentation after 24 hours of macromolecules dispersed in oleic acid with and without PC; conditions: 300 μl oleic acid, error ±5%; for Percent sedimentation after 24 hours, +PC: Example 17: with egg yolk PC SUVs; for Percent sedimentation after 24 hours, −PC: Example 17: without PC
# Procedure: 10 mg of cytochrome C, haemoglobin and FITC-dextran were each dissolved in 1 ml of distilled water. 4.4 mg of RNA (extracted from Torula yeast) was dissolved in 1 ml of phosphate-buffered saline. 2×50 μl of each of these solution was dispensed into fresh glass tubes, and to one of each of these sets of solutions was added 250 μl of SUVs prepared as in example 1 at a concentration of 40 mg/ml of egg yolk lecithin (PC).
# Both sets of tubes were shell-frozen and lyophilised overnight as above. The following day 300 μl of oleic acid was added to each of the tubes. The samples were left to stand at room temperature with occasional vortexing for one hour until complete dispersion had been achieved. The oils were allowed to stand overnight. The turbidity of the samples prepared without PC was greater than those containing PC.
# The following day, sediments had settled out in the samples prepared without PC. Without disturbing any of the samples, the top 150 μl of each sample was taken off, and the absorbances measured of both the material removed, and the material left behind, after mixing; comparison of the two readings allowed one to calculate the percentage sedimentation for samples with and without PC (error in measurements ±5%) Values obtained are listed below.
# [4] = Example 7: salmon calcitonin together with aprotinin, egg PC (EmulsiFlex), glycerol mono-oleate BP
molecule,measurement,setting,value
Salmon calcitonin,appearance of oil phase,"[1]; Example 1: egg PC SUVs, lyophilised, 300 mg oleic acid BP, one to two hours at room temperature","single clear lipid phase, which was optically transparent"
same,protein content of clear preparation,"[1]; Example 2: soy PC SUVs, 95% oleic acid",6.7 mg protein/g oleic acid
same,appearance of preparation,"[1]; Example 2: soy PC SUVs, lyophilised, 1.2 g of 95% oleic acid",completely clear
same,appearance of oil phase,"[1]; Example 4: 13.4 mg protein, 100 mg soy PC, 200 mg oleic acid",clear oil phase
same,calcitonin content of clear oil phase,"[1]; Example 4: soy PC SUVs, 200 mg oleic acid",42.7 mg calcitonin/g
same,appearance of dispersion,[1]; [4],optically clear opalescent dispersion
same,appearance of dispersion,"[1]; Example 11: 30 mg soy PC, 300 mg MCT oil, following morning",opalescent
same,appearance of dispersion,"[1]; Example 11: 30 mg soy PC, 300 mg Miglyol 810, following morning",turbid
same,appearance of dispersion,"[1]; Example 11: 30 mg soy PC, 300 mg Miglyol 812, following morning",opalescent
same,appearance of dispersion,"[1]; Example 11: 30 mg soy PC, 300 mg Miglyol 818, following morning",completely clear
same,appearance of dispersion,"[1]; Example 11: 30 mg soy PC, 300 mg Miglyol 829, following morning",completely clear
same,appearance of dispersion,"[1]; Example 11: 30 mg soy PC, 300 mg Miglyol 840, following morning",turbid
"NC[C@@H]1O[C@H](O[C@H]2[C@@H](O)[C@H](O[C@@H]3[C@@H](O)[C@H](N)C[C@H](N)[C@H]3O[C@H]3O[C@H](CN)[C@@H](O)[C@H](O)[C@H]3N)O[C@@H]2CO)[C@H](N)[C@@H](O)[C@@H]1O.O=S(=O)(O)O [Neomycin sulphate, reference compound]",appearance of solution,"[1]; Example 27: soya PC dispersion, 1 g Miglyol 818, overnight at room temperature",optically clear solution
ribonuclease,appearance of dispersion,"[1]; Example 31: soy PC SUV, 1.6 g Miglyol 818, after several hours",clear dispersion
ferritin,appearance of solution,"[1]; Example 18: egg yolk PC SUVs, ammonium acetate 10 mg/ml, oleic acid","optically clear solutions were obtained (although ferritin solution showed some opalescence, and was strongly coloured)"
carboxyfluorescein [reference compound],appearance of dispersions,"[1]; Example 33: soy PC SUV, melts of tripalmitin, triheptadecanoin or tristearin with 2% oleic acid, 78 C, after several minutes",completely clear
[Ca+2].[Cl-].[Cl-] [calcium chloride],appearance of dispersion,"[1]; Example 35: soy PC SUV, 500 mg Miglyol 818, after standing overnight",completely clear dispersion
same,appearance of dispersion,"[1]; Example 35: soy PC SUV, 500 mg oleic acid, after several hours",completely clear dispersion
aprotinin,OD650,"[2]; lipid:protein ratio 0, 100 μl oleic acid",1.117
same,OD650,"[2]; lipid:protein ratio 1:1, 100 μl oleic acid",0.869
same,OD650,"[2]; lipid:protein ratio 2:1, 100 μl oleic acid",0.438
same,OD650,"[2]; lipid:protein ratio 3:1, 100 μl oleic acid",0.207
same,OD650,"[2]; lipid:protein ratio 4:1, 100 μl oleic acid",0.094
same,OD650,"[2]; lipid:protein ratio 5:1, 100 μl oleic acid",0.099
same,optical density at 550 nm,"[2]; octyl glucoside 0.00 mg/well, 1 hr",0.548
same,optical density at 550 nm,"[2]; octyl glucoside 0.00 mg/well, 4 hr",0.458
same,optical density at 550 nm,"[2]; octyl glucoside 0.00 mg/well, 8 hr",0.489
same,optical density at 550 nm,"[2]; octyl glucoside 0.50 mg/well, 1 hr",0.082
same,optical density at 550 nm,"[2]; octyl glucoside 0.50 mg/well, 4 hr",0.043
same,optical density at 550 nm,"[2]; octyl glucoside 0.50 mg/well, 8 hr",0.103
same,optical density at 550 nm,"[2]; octyl glucoside 1.00 mg/well, 1 hr",−0.003
same,optical density at 550 nm,"[2]; octyl glucoside 1.00 mg/well, 4 hr",−0.008
same,optical density at 550 nm,"[2]; octyl glucoside 1.00 mg/well, 8 hr",−0.008
same,optical density at 550 nm,"[2]; octyl glucoside 1.50 mg/well, 1 hr",−0.004
same,optical density at 550 nm,"[2]; octyl glucoside 1.50 mg/well, 4 hr",−0.015
same,optical density at 550 nm,"[2]; octyl glucoside 1.50 mg/well, 8 hr",−0.015
same,optical density at 550 nm,"[2]; octyl glucoside 2.00 mg/well, 1 hr",−0.007
same,optical density at 550 nm,"[2]; octyl glucoside 2.00 mg/well, 4 hr",−0.012
same,optical density at 550 nm,"[2]; octyl glucoside 2.00 mg/well, 8 hr",−0.013
same,optical density at 550 nm,"[2]; octyl glucoside 2.50 mg/well, 1 hr",0.006
same,optical density at 550 nm,"[2]; octyl glucoside 2.50 mg/well, 4 hr",−0.004
same,optical density at 550 nm,"[2]; octyl glucoside 2.50 mg/well, 8 hr",−0.002
same,optical density at 550 nm,"[2]; octyl glucoside 5.00 mg/well, 1 hr",0.307
same,optical density at 550 nm,"[2]; octyl glucoside 5.00 mg/well, 4 hr",−0.013
same,optical density at 550 nm,"[2]; octyl glucoside 5.00 mg/well, 8 hr",−0.014
same,optical density at 550 nm,"[2]; octyl glucoside 7.50 mg/well, 1 hr",0.65
same,optical density at 550 nm,"[2]; octyl glucoside 7.50 mg/well, 4 hr",−0.015
same,optical density at 550 nm,"[2]; octyl glucoside 7.50 mg/well, 8 hr",−0.014
same,optical density at 550 nm,"[2]; octyl glucoside 10.00 mg/well, 1 hr",1.628
same,optical density at 550 nm,"[2]; octyl glucoside 10.00 mg/well, 4 hr",0.817
same,optical density at 550 nm,"[2]; octyl glucoside 10.00 mg/well, 8 hr",−0.014
same,appearance of oil phase,"[1]; Example 3: lyophilate stored 5 days at 4° C. in desiccator with phosphorus pentoxide, then 300 mg oleic acid",optically clear oil phase
same,appearance of dispersion,[1]; [4],optically clear opalescent dispersion
same,appearance of solution,"[1]; Example 23: HDPoC, lipid:protein ratio 4:1, oleic acid",Optically clear solutions
same,appearance of solution,"[1]; Example 23: HDPoC, lipid:protein ratio 5:1, oleic acid",Optically clear solutions
same,appearance of dispersion,"[1]; Example 36: AOT amphiphile, 200 mg octanol, cleared rapidly, state after 24 hours",opalescent dispersion
Cytochrome C,"Percent sedimentation after 24 hours, +PC",[3],3.1%
same,"Percent sedimentation after 24 hours, −PC",[3],76%
Haemoglobin,"Percent sedimentation after 24 hours, +PC",[3],0%
same,"Percent sedimentation after 24 hours, −PC",[3],44%
